Measurements: patent US20080312152A1, “Glycosylated Probnp” (priority 2005, published 2008)
Entries after “also recorded” stand apart in the source; their conditions may differ.

Tests used:
[1] = BNP as active hormone; cited from earlier work
GC-A receptor [2] = target: T1, GC-A receptor (Homo sapiens, UniProt P16066); test: Competitive binding to GC-A receptor (FIG. 7); settings: glycosylated recombinant human proBNP vs hBNP
T1 sequence (P16066 33-1061): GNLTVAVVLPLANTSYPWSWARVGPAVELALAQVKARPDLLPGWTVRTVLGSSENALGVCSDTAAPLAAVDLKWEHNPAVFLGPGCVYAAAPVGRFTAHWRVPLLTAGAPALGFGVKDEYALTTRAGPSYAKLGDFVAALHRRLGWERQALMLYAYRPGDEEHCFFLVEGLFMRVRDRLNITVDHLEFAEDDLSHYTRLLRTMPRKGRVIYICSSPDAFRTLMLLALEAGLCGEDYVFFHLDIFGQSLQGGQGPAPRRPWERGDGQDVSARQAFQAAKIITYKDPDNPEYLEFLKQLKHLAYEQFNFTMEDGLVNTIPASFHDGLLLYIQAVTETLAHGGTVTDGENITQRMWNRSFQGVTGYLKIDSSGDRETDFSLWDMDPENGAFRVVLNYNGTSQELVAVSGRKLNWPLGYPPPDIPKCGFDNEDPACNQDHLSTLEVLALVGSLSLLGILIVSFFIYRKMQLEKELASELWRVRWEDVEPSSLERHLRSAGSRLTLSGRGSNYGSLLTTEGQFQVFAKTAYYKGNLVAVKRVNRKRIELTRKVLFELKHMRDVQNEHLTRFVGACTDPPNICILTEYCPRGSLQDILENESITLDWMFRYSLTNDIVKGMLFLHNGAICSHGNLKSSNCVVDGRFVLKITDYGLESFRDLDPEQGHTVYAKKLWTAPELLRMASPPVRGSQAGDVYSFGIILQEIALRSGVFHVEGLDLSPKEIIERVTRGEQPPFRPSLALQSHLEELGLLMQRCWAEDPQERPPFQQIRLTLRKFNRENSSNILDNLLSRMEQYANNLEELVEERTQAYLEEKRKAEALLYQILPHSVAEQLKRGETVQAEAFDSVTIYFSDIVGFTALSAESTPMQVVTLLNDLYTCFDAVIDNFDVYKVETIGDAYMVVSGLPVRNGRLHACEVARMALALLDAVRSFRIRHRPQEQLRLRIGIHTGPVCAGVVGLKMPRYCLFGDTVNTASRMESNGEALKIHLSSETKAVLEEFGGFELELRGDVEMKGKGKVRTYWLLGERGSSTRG
From the text: FIG. 7 is a graph showing competitive binding of glycosylated recombinant human proBNP to GC-A receptor relative to hBNP.

NPR-A receptor = target: T2, NPR-A receptor (Homo sapiens, UniProt P16066); test: NPR-A activation in human aorta endothelial cells (FIG. 8); type: cell-based
T2 construct: endogenous in cells; host or cells: human aorta endothelial cells
T2 sequence (P16066 33-1061): T1 sequence (P16066 33-1061)
From the text: The graph provides a direct activity comparison of hBNP relative to proBNP.
With respect to proBNP and BNP, total “Natriuretic Activity” in a blood sample is defined by the cumulative activity of proBNP and hBNP. When measuring against this receptor however it should be appreciated that the activity of other relevant natriuretic peptides, such as ANP and proANP can and should also be taken into consideration.

GC-A receptor [3] = target: T1, GC-A receptor; test: Cyclic GMP release from cells expressing the human GC-A receptor; type: cell-based; settings: vs hBNP
Method: Pursuant to the present invention, the effects of hBNP, unglycosylated proBNP, and O-link glycosylated proBNP on cyclic GMP release from cells expressing the human GC-A receptor were determined.

[4] = Pharmacokinetics after i.v. bolus in cynomolgus monkeys (FIGS. 9, 10); type: in vivo, cynomolgus monkey; settings: for circulating (plasma) half-life compared to hBNP: i.v., male Cyno monkeys
From the text: Six adult male cynomolgus monkeys (5-6 kg) from the same colony were randomly selected for this study. In the morning of the experiment day, each monkey was quickly anesthetized by inhalation of 5% isoflurance/95% oxygen. Once the animal was unconscious, the isoflurance was reduced to 1.5% and a sterile catheter was inserted into the urinary bladder. Another catheter was connected to a cephalic vein in the right or left arm of the monkey for compound delivery. The anesthesia was discontinued. The conscious monkey was seated in a restraining chair and allowed to stabilize for 1 hour. The conscious monkey received two bolus doses (1 nmol/kg and 3 nmol/kg) of each human BNP analog in 1 ml of saline via cephalic vein injection followed by a flush with 3 ml of saline. One hour of washing-out period was required between the two administrations. Two ml of blood were drawn into a EDTA tube containing 150 kallikrein-inactivating units aprotonin via a cephalic vein in the another arm of the monkey at the following 8 time points: baseline (within 2 min prior to dosing), 2, 5, 10, 15, 30, 60 and 120 min. The collected samples were kept on ice prior to centrifugation at 4° C. The plasma from each time point was aliquoted to 4 Eppendorff tubes with approximately […]. For urine collection, the bladder was emptied and flushed with 5 ml of sterile water. The urine was collected to a 15 ml regular polypropylene tube in every 20 min at the following time points: −60, −40, −20, 0, 20, 40, 60, 80, 100 and 120 min. Weighing of tube was required before and after collection. The urine sample from each time point was aliquoted to 4 Eppendorf tubes with […]. All plasma and urine samples were kept at −80° C. and delivered on dry ice. Material supply: […] of hBNP were required for 8 cynos with the body weight of 6 kg at the doses of 1 nmol/kg and 3 nmol/kg, respectively. The material for each dose was weighed to a 15 ml sterile tube and dissolved in 8 ml of sterile saline prior to injection. Approximately 1 ml of the material at each dose was injected to each animal. The injection volume (ml) of the material to each animal was equal to animal body weight (kg) divided by six.

cGMP = cGMP levels in plasma and urine after i.v. bolus in cynomolgus monkeys; type: in vivo, cynomolgus monkey
From the text: Six adult male cynomolgus monkeys (5-6 kg) from the same colony were randomly selected for this study. In the morning of the experiment day, each monkey was quickly anesthetized by inhalation of 5% isoflurance/95% oxygen. Once the animal was unconscious, the isoflurance was reduced to 1.5% and a sterile catheter was inserted into the urinary bladder. Another catheter was connected to a cephalic vein in the right or left arm of the monkey for compound delivery. The anesthesia was discontinued. The conscious monkey was seated in a restraining chair and allowed to stabilize for 1 hour. The conscious monkey received two bolus doses (1 nmol/kg and 3 nmol/kg) of each human BNP analog in 1 ml of saline via cephalic vein injection followed by a flush with 3 ml of saline. One hour of washing-out period was required between the two administrations. Two ml of blood were drawn into a EDTA tube containing 150 kallikrein-inactivating units aprotonin via a cephalic vein in the another arm of the monkey at the following 8 time points: baseline (within 2 min prior to dosing), 2, 5, 10, 15, 30, 60 and 120 min. The collected samples were kept on ice prior to centrifugation at 4° C. The plasma from each time point was aliquoted to 4 Eppendorff tubes with approximately […]. For urine collection, the bladder was emptied and flushed with 5 ml of sterile water. […]

| competitive binding to GC-A receptor relative to hBNP (GC-A receptor [2]) | activity against the NPR-A receptor (NPR-A receptor) | inducing cellular cyclic GMP release (receptor activation) (GC-A receptor [3]) | potency in cyclic GMP release assay (GC-A receptor [3]) | Compound | half-life [1] | potency on NPR-A activation compared to hBNP (NPR-A receptor) | PK profile compared to BNP ([4]; conscious restrained cynomolgus monkeys, i.v. bolus) | metabolism in the blood ([4]; cynomolgus monkeys) | circulating (plasma) half-life compared to hBNP [4] | circulating (plasma) half-life compared to hBNP ([4]; listed as glycosylated proBNP) | effects on cGMP levels in plasma compared to BNP (cGMP; plasma) | effects on cGMP levels in urine compared to BNP (cGMP; urine) |
| --- | --- | --- | --- | --- | --- | --- | --- | --- | --- | --- | --- | --- |
|  |  |  |  | CC[C@H](C)[C@@H]1NC(=O)[C@H](CCCNC(=N)N)NC(=O)[C@H](CC(=O)O)NC(=O)[C@H](CCSC)NC(=O)[C@H](CCCCN)NC(=O)[C@H](CCCNC(=N)N)NC(=O)CNC(=O)[C@H](Cc2ccccc2)NC(=O)[C@@H](NC(=O)CNC(=O)[C@H](CO)NC(=O)CNC(=O)[C@H](CCC(N)=O)NC(=O)[C@@H](NC(=O)[C@H](CCSC)NC(=O)[C@H](CCCCN)NC(=O)[C@@H]2CCCN2C(=O)[C@@H](N)CO)C(C)C)CSSC[C@@H](C(=O)N[C@@H](CCCCN)C(=O)N[C@H](C(=O)N[C@@H](CC(C)C)C(=O)N[C@@H](CCCN=C(N)N)C(=O)N[C@@H](CCCN=C(N)N)C(=O)N[C@@H](Cc2cnc[nH]2)C(=O)O)C(C)C)NC(=O)CNC(=O)[C@H](CC(C)C)NC(=O)CNC(=O)[C@H](CO)NC(=O)[C@H](CO)NC(=O)[C@H](CO)NC(=O)[C@H](CO)NC1=O [hBNP] | approximately 20 minutes |  |  |  |  |  |  |  |
| less active | exhibit activity | equivalent to hBNP | less potent than hBNP | proBNP: 108 amino acid human BNP precursor protein, O-link glycosylated, recombinantly expressed in CHO cells |  | lower activity than hBNP; also recorded: reduced potency | extended PK profile | not metabolized in the blood | longer plasma half-life; also recorded: substantial increase in circulating half-life | greater than that of hBNP | reduced effects | reduced effects |
